We go through three molecules from patent US20240228986A1, “ENGINEERED CELLS, ENZYMES, AND METHODS FOR PRODUCING CANNABINOIDS” (priority 2021, published 2024).

For assay [1], the system named is olivetolic acid. Description: GPS1.1 fusions of MPT21 mutants, OA feed (Example 8, Table 10). The note with it: 3 mM olivetolic acid, 6% glucose, 48 h quench; strain sCL-SE-0128. It is filed as cell-based, Yarrowia. The method, then: (§1) Overnight YPD (10 g/L yeast extract, 20 g/L peptone, 2% dextrose) cultures were inoculated from glycerol stocks of the appropriate strain and grown at 30° C. with 250 rpm shaking. Once cultures had reached an OD600 of 4-6, cultures were centrifuged at 500×g for 5 min, supernatants were discarded, and cell pellets were resuspended in equal volume of water. Resuspended cells were centrifuged at 500×g for 5 min, supernatants were discarded, and cells were resuspended in a volume (75 μL×OD×Vculture) of transformation cocktail (45% PEG-400, 0.1 M LiAc, 0.1 M DTT, and 25 ug/100 μL SS Salmon Sperm DNA). For each transformation, >1 μg of plasmid DNA was added to 55 μL cells/transformation cocktail and vortexed for 2 s. Transformations were incubated at 39° C. for 1 h with 250 rpm shaking. Transformations were resuspended in 750 μL YPD with 1 M sorbitol and recovered at 30° C. overnight with 250 rpm shaking. The next day, transformations were centrifuged at 500×g for 5 min, supernatants were discarded, and cell pellets were resuspended in 750 YPD. Resuspended transformations were plated on YPD with appropriate selection or YNBD (6.71 g/L yeast nitrogen base+nitrogen, 0.5% casamino acids, 2% dextrose) agar plates and grown at 30° C. for 2 days. Individual colonies were patched onto YPD plates with appropriate selection or YNBD plates and grown at 30° C. overnight. Patches were used to inoculate 0.5 mL YPD with appropriate selection or YNBD precultures in 96 w blocks and grown at 30° C. for 24-48 h with 1000 rpm shaking. For assays, 0.5 mL YPD with appropriate selection or YNBD cultures containing substrate were inoculated with 2 μL from precultures and grown at 30° C. for 2-4 days with 1000 rpm shaking with 2% glucose added every 24 h. Assay cultures were quenched by addition of 0.5 mL ethanol with 0.2% formic acid and 0.5 mg/mL pentyl-benzoic acid. Precipitates were pelleted by centrifuging at 4600×g for 10 min and then 200 μL was transferred to fresh plates, sealed, and analyzed via HPLC.
(§2) All samples were quenched with equal volume of EtOH containing 0.2 mg/mL internal standard (3,5-Diisopropyl-2-hydroxybenzoic acid CAS #2215-21-6) centrifuged, and clarified solutions were analyzed by HPLC-MS
(§3) • Column: 2.1×50 mm COSMOCORE PBr (Nacalai USA, Inc.) • Mobile Phase: A; 0.1% formic acid in water, B; 0.1% formic acid in acetonitrile • Flow: 0.45 mL/min • Temp: % 50 Celsius • Gradient: 20%B at 0 min, 70%B at 2.3 min, 89% B at 4.2 min, 20% B at 4.3 min, 20%B at 6 min

The test system of assay [2] is olivetolic acid. Description: MPT4.1 with and without GPS1.1 fusion vs MPT4 fusion, in vivo assay (Example 5). It is filed as cell-based, Yarrowia. The note with it: 3 mM olivetolic acid. The method, then:
As described below, plasmids pCL-SE-0337.MPT4.1 and pCL-SE-0753 were transformed into strain sCL-SE-0128. Multiple colonies per transformation were precultured for 24 h in YNB containing glucose (2%), casamino acids (0.5%), and MES (100 mM pH 6.5). Pre-culture was used to inoculate assay medium comprised of YNB containing glucose (6%), casamino acids (0.5%), MES (100 mM pH 6.5), and olivetolic acid (3 mM). Cultures were quenched with equal volume of ethanol after 48 h total growth and assayed for CBGA and FCBGA. Averages and standard deviations were calculated from replicates.
as §1, §2, §3

The subject of assay [3] is olivetolic acid. Description: GPS-APT fusions, OA feed in vivo assay (Example 11). It is filed as cell-based, Yarrowia. In outline: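 Yeast strain sCL-SE-0128 carrying GPS1.1–APT73.77 fusion plasmids (N- or C-terminal, various linkers) was precultured 48 h, then grown in YNB/glucose/casamino acids/MES pH 6.5 with 2 mM olivetolic acid. After 48 h total growth, cultures were quenched with equal-volume ethanol and CBGA/FCBGA measured by HPLC-MS against internal standard.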

For assay [4], the system named is divarinic acid. Description: GPS1.1 fusions of MPT21 mutants, DVA feed (Example 9, Table 12). Conditions: 2 mM divarinic acid, 2% glucose, quenched after 48 h; strain sCL-SE-0128. Type of assay: cell-based, Yarrowia. The method, then:
as §1, §2, §3

The subject of assay [5] is divarinic acid. Nature of the assay: MPT fusions with GPS1.1 vs unfused MPTs, DVA feed (Example 9, Table 11). Type of assay: cell-based, Yarrowia. Conditions: 2 mM divarinic acid; for CBGVA / FCBGVA: 2% glucose, quenched after 48 h, strain sCL-SE-0128; for CBGVA/FCB: 48 h, product ratio. The method, then: As described below, plasmids pCL-SE-0406, pCL-SE-0664, pCL-SE-0663, pCL-SE-0662, pCL-SE-0380 (MPT4), pCL-SE-0337.MPT21, were transformed into strain sCL-SE-0128. Multiple colonies per transformation were precultured for 48 h in YNB containing glucose (2%), casamino acids (0.5%), and MES (100 mM pH 6.5). Pre-culture was used to inoculate assay medium comprised of YNB containing glucose (2%), casamino acids (0.5%), MES (100 mM pH 6.5), and divarinic acid (2 mM). Cultures were quenched after 48 h total growth and assayed for CBGVA and FCBGVA. Averages and standard deviations were calculated from replicates.
as §1, §2, §3

The test system of assay [6] is olivetolic acid. Nature of the assay: Screening of MPT library hits in Yarrowia, OA feed (Example 2). Conditions: OA Feed (48 h). Type of assay: cell-based. As to the method:
(§4) As described in detail below, plasmid pCL-SE-0337.MPT21,26,31 were transformed into strain sCL-SE-0128 and 4 separate colonies of each were patched and precultured for 48 h. Assay cultures consisted of minimal media with 100 mM MES pH 6.5, 0.5% ethanol and 2 mM olivetolic or divarinic acid (DVA). Cultures with olivetolic acid were quenched with equal volume of ethanol after 48 h total growth while cultures with DVA with quenched after 96 h total growth. Enzymes produced CBGA and FCBGA from olivetolic acid and CBGVA and FCBGVA from DVA. Averages and standard deviations were calculated from replicates.
as §1, §2, §3

Another assay concerns divarinic acid (DVA). Nature of the assay: Screening of MPT library hits in Yarrowia, DVA feed (Example 2). It is filed as cell-based. The note with it: DVA Feed (96 h). The method, then:
as §4, §1, §2, §3

Assay [7] relates to olivetolic acid. Description: MPT fusions with GPS1.1 vs unfused MPTs, OA feed (Example 8, Table 9). Type of assay: cell-based, Yarrowia. Conditions: 2 mM olivetolic acid, 48 h quench; for CBGA / FCBGA: 2% glucose, strain sCL-SE-0128; for CBGA/FCBGA: product ratio. The procedure, abridged: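 Yeast strain sCL-SE-0128 carrying MPT or GPS1.1–MPT fusion plasmids, precultured 48 h in YNB/2% glucose/0.5% casamino acids/100 mM MES pH 6.5. Assay medium was the same plus 2 mM olivetolic acid, 30 °C. Cultures were ethanol-quenched at 48 h total growth, and CBGA and FCBGA were measured by HPLC-MS with internal standard; values are replicate means ± SD.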

Setting [8] is: 6% glucose, 48 h quench, strain sCL-SE-0128.
Setting [9] is: olivetolic acid feed as in Example 8, 48 h quench, strain sCL-SE-0128.

B1: GPS1.1-F11-MPT4.1: fusion of GPS1.1 and MPT4.1 via F11 linker, SEQ ID NO: 56 (protein)
chain: MSKAKFESVFPRISEELVQLLRDEGLPQDAVQWFSDSLQYNCVGGKLNRGLSVVDTYQLLTGKKELDDEEYYRLALLGWLIELLQAFWLVSDDIMDESKTRRGQPCWYLKPKVGMIAIWDAFMLESGIYILLKKHFRQEKYYIDLVELFHDISFKTELGQLVDLLTAPEDEVDLNRFSLDKHSFIVRYKTAYYSFYLPVVLAMYVAGITNPKDLQQAMDVLIPLGEYFQVQDDYLDNFGDPEFIGKIGTDIQDNKCSWLVNKALQKATPEQRQILEDNYGVKDKSKELVIKKLYDDMKIEQDYLDYEEEVVGDIKKKIEQVDESRGFKKEVLNAFLAKIYKRQKGGAEAAAKEAAAKAGGSGGGSGGGGSGGSGGGGSGGGGSMSDNSIATKILNFGHTCWKLQRPYAVKGMISIACGLFGRELFNNRHLFSWGLMWKAFFALVPILSFNFFAAIMNQIYDVDIDRINKPDLPLVSGEMSIETAWILSIIVALTGLIVTIKLKSAPLFVFIYIFGIFAGFAYSVPPIRWKQYPFTNFLITISSHVGLAFTSYSATTSALGLPFVWRPAFSFIIAFMTVMGMTIAFAKDISDIEGDAKYGVSTVATKLGARNMTFVVSGVLLLNYLVSISIGIIWPQVFKSNIMILSHAILAFCLIFQTRELALANYASAPSRQFFEFIWLLYYAEYFVYVFI
modifications: GPS1.1-F11-MPT4.1, geranyl diphosphate synthase, point mutant membrane-bound prenyltransferase fusion protein
For the molecule B1, in the assay on olivetolic acid [1], the CBGA amounted to 358 ± 0 µM and the FCBGA was 27 ± 0 µM. In the assay with olivetolic acid [2] (setting [8]), this molecule showed a CBGA of 425 ± 11 µM and an FCBGA of 34 ± 1 µM. For the same molecule, in the assay with olivetolic acid [2] (48 h quench, product ratio), the CBGA/FCBGA came out at 12.6. Also, in the assay on olivetolic acid [2] (fusion vs unfused MPT4.1, 48 h), the “increase of the titer of CBGA” value is reported as 67%. Besides, in the assay on olivetolic acid [3] (setting [9]), the CBGA was determined as 365 ± 22 µM and the FCBGA was determined as 26 ± 1 µM. The CBGA/FCBG with olivetolic acid [3] (olivetolic acid feed, 48 h quench, product ratio) was 14.3. In the assay on divarinic acid [4], this molecule yielded a CBGVA of 91 ± 6 µM and an FCBGVA of 0 ± 0 µM.

B2: MPT21 (protein)
chain: MSDNSIATKILNFGHTCWKLQRPYVVKGMISIACGLFGKELLHNTNLISWGLMWKAFFALVPILSFNFFAAIMNQIYDVDIDRINKPDLPLVSGEMSIETAWILSIIVALTGLIVTIKLKSAPLFVFIYIFGIFAGFAYSVPPIRWKQNPSTNFLITISSHVGLAFTSYYASRAALGLPFELRPSFTFLLAFMTVMGMTIAFAKDISDIEGDAKYGVSTVATKLGARNMTFVVSGVLLLNYVAAILAGIIWPQAFNSNVMLLSHAILAFCLIFQTRELALANYASAPSRQFFEFIWLLYYAEYFVYVFI
modifications: MPT21 (recombinant membrane-bound prenyltransferase)
Take B2: in the assay with divarinic acid [5], the CBGVA stood at 9 ± 3 µM, the FCBGVA came to 1 ± 1 µM and the CBGVA/FCB amounted to 10.8. For the same molecule, the CBGA with olivetolic acid [6] (2 mM olivetolic acid, minimal media, 0.5% ethanol, strain sCL-SE-0128, product accumulated) stood at 310 ± 11 µM. For the same molecule, the CBGA/FCBGA in the assay on olivetolic acid [6] (product ratio) worked out at 3.1. The CBGVA with divarinic acid (DVA) (2 mM DVA, minimal media, 0.5% ethanol, strain sCL-SE-0128, product accumulated) was determined as 647 ± 45 µM. For the same molecule, the CBGVA/FCBGVA with divarinic acid (DVA) (product ratio) is given as 6.0. For the same molecule, in the assay on olivetolic acid [7], the CBGA amounted to 109 ± 27 µM, the FCBGA amounted to 43 ± 10 µM and the CBGA/FCBGA came to 2.6.

B3: GPS1.1-F11-MPT21: fusion of GPS1.1 and MPT21 via F11 linker, SEQ ID NO: 25 (protein)
chain: MSKAKFESVFPRISEELVQLLRDEGLPQDAVQWFSDSLQYNCVGGKLNRGLSVVDTYQLLTGKKELDDEEYYRLALLGWLIELLQAFWLVSDDIMDESKTRRGQPCWYLKPKVGMIAIWDAFMLESGIYILLKKHFRQEKYYIDLVELFHDISFKTELGQLVDLLTAPEDEVDLNRFSLDKHSFIVRYKTAYYSFYLPVVLAMYVAGITNPKDLQQAMDVLIPLGEYFQVQDDYLDNFGDPEFIGKIGTDIQDNKCSWLVNKALQKATPEQRQILEDNYGVKDKSKELVIKKLYDDMKIEQDYLDYEEEVVGDIKKKIEQVDESRGFKKEVLNAFLAKIYKRQKGGAEAAAKEAAAKAGGSGGGSGGGGSGGSGGGGSGGGGSMSDNSIATKILNFGHTCWKLQRPYVVKGMISIACGLFGKELLHNTNLISWGLMWKAFFALVPILSFNFFAAIMNQIYDVDIDRINKPDLPLVSGEMSIETAWILSIIVALTGLIVTIKLKSAPLFVFIYIFGIFAGFAYSVPPIRWKQNPSTNFLITISSHVGLAFTSYYASRAALGLPFELRPSFTFLLAFMTVMGMTIAFAKDISDIEGDAKYGVSTVATKLGARNMTFVVSGVLLLNYVAAILAGIIWPQAFNSNVMLLSHAILAFCLIFQTRELALANYASAPSRQFFEFIWLLYYAEYFVYVFI
modifications: GPS1.1-F11-MPT21, geranyl diphosphate synthase, recombinant membrane-bound prenyltransferase fusion protein
As for B3, in the assay with olivetolic acid [1], the CBGA amounted to 276 ± 17 µM and the FCBGA was 89 ± 4 µM. In the assay with divarinic acid [5], the CBGVA amounted to 28 ± 2 µM, the FCBGVA was determined as 4 ± 0 µM and the CBGVA/FCB is 7.2. For the same molecule, in the assay with olivetolic acid [7], the CBGA came out at 156 ± 13 µM, the FCBGA turned out to be 52 ± 5 µM and the CBGA/FCBGA is on record as 3.0. In addition, in the assay on divarinic acid [4], the CBGVA is 58 ± 7 µM and the FCBGVA turned out to be 6 ± 1 µM.
